Experimental findings from the supplement of paper PMC9112550, “Optimization of the antimicrobial peptide Bac7 by deep mutational scanning” (BMC Biology, 2022) are described below.

The data set has as its system Escherichia coli TOP10. Briefly: shrunken log2 fold change of peptide-encoding DNA abundance (4.5 h post-induction vs induction); higher = less antimicrobial activity (less host growth inhibition). To be noted: time post-induction: 4.5 h; library: site-saturation at positions 5, 18, 19, 20.
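Note: peptides expressed intracellularly from a pBAD plasmid library in pooled LB shake-flask culture, induced with 0.3% L-arabinose, DNA abundance read by NGS, three biological replicates, DESeq2 with apeglm shrinkage.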

Consider RRIRSRPPRLPRPRPRPIPWPRP, for which the “shrunken log2 fold change” value is -0.121.
The result for RRIRRRPPRLPRPRPRPPADPRP reads 0.781.
For the sequence RRIRIRPPRLPRPRPRPQSEPRP, the “shrunken log2 fold change” value was -0.219.
The result for RRIRNRPPRLPRPRPRPMHTPRP reads 0.0242.
The result for RRIRSRPPRLPRPRPRPIDAPRP reads -0.101; that for RRIRMRPPRLPRPRPRPPDNPRP, 1.55.
On to RRIRNRPPRLPRPRPRPFPAPRP, for which the “shrunken log2 fold change” value is -0.0844.
The result for RRIRDRPPRLPRPRPRPLEGPRP reads 0.0257; that for RRIRCRPPRLPRPRPRPDAKPRP, 0.0864; that for RRIRRRPPRLPRPRPRPIHPPRP, -0.261.
The result for RRIRRRPPRLPRPRPRPLGQPRP reads 0.00384; that for RRIRSRPPRLPRPRPRPFFWPRP, 0.485.
The result for RRIRTRPPRLPRPRPRPSPEPRP reads 0.0171; that for RRIRTRPPRLPRPRPRPILQPRP, -0.44.
For the sequence RRIRDRPPRLPRPRPRPTKDPRP, the “shrunken log2 fold change” value amounted to 0.0518.
The result for RRIRCRPPRLPRPRPRPYWIPRP reads -1.17; that for RRIRLRPPRLPRPRPRPEYSPRP, -0.279; that for RRIRERPPRLPRPRPRPRPVPRP, 0.114.
As for RRIRARPPRLPRPRPRPHEIPRP, the “shrunken log2 fold change” value is -0.107.
As to RRIRCRPPRLPRPRPRPQMVPRP, the “shrunken log2 fold change” value was 0.151.
The result for RRIRNRPPRLPRPRPRPTGGPRP reads 0.154; that for RRIRHRPPRLPRPRPRPTVAPRP, 0.325; that for RRIRDRPPRLPRPRPRPYAGPRP, 0.0325.
The result for RRIRFRPPRLPRPRPRPHPVPRP reads -0.141; that for RRIRFRPPRLPRPRPRPVDSPRP, 0.0218; that for RRIRGRPPRLPRPRPRPRRHPRP, 0.612.
The result for RRIRWRPPRLPRPRPRPEWVPRP reads 0.927; that for RRIRARPPRLPRPRPRPDCGPRP, 0.966; that for RRIRTRPPRLPRPRPRPMRKPRP, 0.375.
With RRIRHRPPRLPRPRPRPNKMPRP, the “shrunken log2 fold change” value was -0.0582.
The result for RRIRLRPPRLPRPRPRPKYEPRP reads -0.0397; that for RRIRMRPPRLPRPRPRPQMEPRP, 0.0809; that for RRIRGRPPRLPRPRPRPERTPRP, 1.21.
Consider RRIRHRPPRLPRPRPRPPRSPRP, for which the “shrunken log2 fold change” value is 0.704.
The result for RRIRQRPPRLPRPRPRPEKAPRP reads -0.00536; that for RRIRLRPPRLPRPRPRPMRAPRP, 0.862.
Regarding RRIRARPPRLPRPRPRPGKPPRP, the “shrunken log2 fold change” value was 0.154.
For RRIRCRPPRLPRPRPRPVCNPRP, the “shrunken log2 fold change” value came out at 0.0532.
Consider RRIRDRPPRLPRPRPRPYGQPRP, for which the “shrunken log2 fold change” value was -0.0816.
The result for RRIRLRPPRLPRPRPRPTKCPRP reads -0.0436; that for RRIRFRPPRLPRPRPRPGSIPRP, -0.235.
The result for RRIRKRPPRLPRPRPRPCTWPRP reads -0.15.
For RRIRGRPPRLPRPRPRPCLKPRP, the “shrunken log2 fold change” value came to 0.213.
The result for RRIRGRPPRLPRPRPRPRPCPRP reads 0.676.
Regarding RRIRIRPPRLPRPRPRPHIGPRP, the “shrunken log2 fold change” value is -0.17.
The result for RRIRDRPPRLPRPRPRPVVAPRP reads 0.725; that for RRIRTRPPRLPRPRPRPIDPPRP, -0.201.
With RRIRVRPPRLPRPRPRPPQTPRP, the “shrunken log2 fold change” value was 0.0537.
The result for RRIRFRPPRLPRPRPRPICGPRP reads 0.0198; that for RRIRARPPRLPRPRPRPTCVPRP, 0.698; that for RRIRYRPPRLPRPRPRPPIAPRP, 0.00572.
The result for RRIRCRPPRLPRPRPRPPMDPRP reads 0.0314.
The result for RRIRRRPPRLPRPRPRPSFDPRP reads 0.135; that for RRIRGRPPRLPRPRPRPCNPPRP, -0.266; that for RRIRKRPPRLPRPRPRPFLFPRP, -0.0622.
For RRIRCRPPRLPRPRPRPQHVPRP, the “shrunken log2 fold change” value is -0.199.
The result for RRIRGRPPRLPRPRPRPLPRPRP reads 1.5.
For the sequence RRIRLRPPRLPRPRPRPDIQPRP, the “shrunken log2 fold change” value is 0.0103.
The result for RRIRMRPPRLPRPRPRPEDMPRP reads 3.26; that for RRIRDRPPRLPRPRPRPVREPRP, 0.929.
The result for RRIRERPPRLPRPRPRPHRQPRP reads -0.0179; that for RRIRYRPPRLPRPRPRPDSVPRP, -0.338; that for RRIRKRPPRLPRPRPRPLVTPRP, 0.24.
Take RRIRFRPPRLPRPRPRPLAIPRP: the “shrunken log2 fold change” value is -0.0726.
As to RRIRSRPPRLPRPRPRPLMMPRP, the “shrunken log2 fold change” value was -0.0355.
In the case of RRIRGRPPRLPRPRPRPWIVPRP, the “shrunken log2 fold change” value was 0.189.
The result for RRIRFRPPRLPRPRPRPFTWPRP reads -0.816.
The result for RRIRWRPPRLPRPRPRPQFTPRP reads -0.313.
In the case of RRIRHRPPRLPRPRPRPYAEPRP, the “shrunken log2 fold change” value was -0.0381.
RRIRLRPPRLPRPRPRPKSNPRP: the “shrunken log2 fold change” value is -0.172.
As to RRIRMRPPRLPRPRPRPVSCPRP, the “shrunken log2 fold change” value amounted to 0.141.
The result for RRIRCRPPRLPRPRPRPYCWPRP reads -0.331; that for RRIRGRPPRLPRPRPRPYFCPRP, -0.119.
Turning to RRIRERPPRLPRPRPRPREWPRP, the “shrunken log2 fold change” value stood at 0.325.
RRIRWRPPRLPRPRPRPNTMPRP: the “shrunken log2 fold change” value was -0.301.
As to RRIRPRPPRLPRPRPRPYYFPRP, the “shrunken log2 fold change” value was -0.427.
For RRIRSRPPRLPRPRPRPAHIPRP, the “shrunken log2 fold change” value is -0.0188.
As for RRIRDRPPRLPRPRPRPPTTPRP, the “shrunken log2 fold change” value is 0.151.
With RRIRFRPPRLPRPRPRPSKKPRP, the “shrunken log2 fold change” value stood at 0.0524.
The result for RRIRARPPRLPRPRPRPHTGPRP reads -0.365; that for RRIRIRPPRLPRPRPRPFLCPRP, -0.628.
Take RRIRPRPPRLPRPRPRPRCSPRP: the “shrunken log2 fold change” value is 0.00477.
The result for RRIRKRPPRLPRPRPRPEMCPRP reads 1.1; that for RRIRVRPPRLPRPRPRPLYMPRP, -0.128; that for RRIRARPPRLPRPRPRPYSRPRP, -0.0171.
For RRIRVRPPRLPRPRPRPAKMPRP, the “shrunken log2 fold change” value is 0.0161.
The result for RRIRSRPPRLPRPRPRPRPLPRP reads 0.171.
In the case of RRIRTRPPRLPRPRPRPDNWPRP, the “shrunken log2 fold change” value was -0.244.
The result for RRIRHRPPRLPRPRPRPTIVPRP reads -0.292.
For RRIRHRPPRLPRPRPRPRGPPRP, the “shrunken log2 fold change” value is 0.171.
For RRIRWRPPRLPRPRPRPWVDPRP, the “shrunken log2 fold change” value is -0.119.
RRIRNRPPRLPRPRPRPVDLPRP: the “shrunken log2 fold change” value was -0.21.
The result for RRIRCRPPRLPRPRPRPQKGPRP reads -0.133.
The result for RRIRFRPPRLPRPRPRPGDNPRP reads -0.0236; that for RRIRPRPPRLPRPRPRPWWRPRP, 0.14; that for RRIRRRPPRLPRPRPRPTFIPRP, -0.0768.
For the sequence RRIRLRPPRLPRPRPRPEQHPRP, the “shrunken log2 fold change” value turned out to be 0.243.
In the case of RRIRIRPPRLPRPRPRPINTPRP, the “shrunken log2 fold change” value is -0.954.
With RRIRKRPPRLPRPRPRPPLGPRP, the “shrunken log2 fold change” value worked out at 0.668.
The result for RRIRPRPPRLPRPRPRPGYPPRP reads -0.0289; that for RRIRDRPPRLPRPRPRPYKNPRP, -0.454; that for RRIRTRPPRLPRPRPRPICLPRP, -0.14.
The result for RRIRGRPPRLPRPRPRPAEVPRP reads 0.31; that for RRIRTRPPRLPRPRPRPPSEPRP, 0.42; that for RRIRCRPPRLPRPRPRPRGHPRP, 0.071.
Regarding RRIRVRPPRLPRPRPRPQIQPRP, the “shrunken log2 fold change” value was -0.034.
The result for RRIRMRPPRLPRPRPRPAGEPRP reads 1.87; that for RRIRERPPRLPRPRPRPNMIPRP, -0.272; that for RRIRIRPPRLPRPRPRPHCTPRP, -0.0502.
The result for RRIRERPPRLPRPRPRPGLKPRP reads 0.131; that for RRIRMRPPRLPRPRPRPMMKPRP, 0.0962.
In the case of RRIRCRPPRLPRPRPRPANSPRP, the “shrunken log2 fold change” value is -0.685.
The result for RRIRYRPPRLPRPRPRPIRWPRP reads -0.114; that for RRIRGRPPRLPRPRPRPLGWPRP, 1.27; that for RRIRIRPPRLPRPRPRPAVQPRP, -0.107.
Consider RRIRDRPPRLPRPRPRPCHIPRP, for which the “shrunken log2 fold change” value is -0.251.
Take RRIRYRPPRLPRPRPRPIFRPRP: the “shrunken log2 fold change” value is -0.258.
The result for RRIRWRPPRLPRPRPRPAISPRP reads -0.00844.
For the sequence RRIRMRPPRLPRPRPRPSWCPRP, the “shrunken log2 fold change” value amounted to 0.387.
The result for RRIRNRPPRLPRPRPRPFYTPRP reads -1.29; that for RRIRDRPPRLPRPRPRPGGQPRP, 0.211; that for RRIRSRPPRLPRPRPRPNIRPRP, 0.0389.
The result for RRIRPRPPRLPRPRPRPCFHPRP reads -0.202.
With RRIRHRPPRLPRPRPRPPNRPRP, the “shrunken log2 fold change” value was -0.0966.
As to RRIRCRPPRLPRPRPRPLTIPRP, the “shrunken log2 fold change” value was -0.66.
